These sequences were tested on K4 kissing-loop RNA reporter (assay: apparent KD of K4 kissing-loop reporter; higher = weaker reporter binding). Settings: Eterna round: R107; input ligand: tryptophan 2.4 mM.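 Also: bound reporter read as fluorescence of individual clusters on recovered sequencing chips by microscopy, with normalized cluster intensities fitted with a binding model.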
Protocol: (§1)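 RNA-MaP round R107: designed RNA switches with theophylline, tryptophan, arginine or FMN aptamers are transcribed on-chip within common flanks. They are titrated with a labelled K4 kissing-loop RNA reporter in RNA-MaP buffer (100 mM Tris pH 7.5, 80 mM KCl, 4 mM MgCl2), without ligand or with the indicated ligand. Median apparent KD per design.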
With “GGUAGCAUCGCGGCCGCCACUAAUCGCUAAGGCUCAGGACCCUAAUAGCGAGUGAUGUUCGCCCUUAGGACCGGGCGAUGCUACC” the “apparent KD of K4 kissing-loop reporter” value was 119 nM. “UGAUACCAGACUGAUACCAGCCAGUGAUGUUGGCAAUAUCCAAGGUGAGUCAAAGACUCGGGCCCUUGGCAGCAGUCUGGUAUCU [TheoBX 7 #SwitchBubble #StaticStem]” was tested, and the “apparent KD of K4 kissing-loop reporter” value was 135 nM. In the case of “GAUUUAGAGGCGGCCGCCACUAGUGAUGUUAGUGAUGUUUGAUACUGUAUAUAUCGGCGUGUAGAUAGGACCGGGCCAGAUGGAG [tbqqmullin]”, the “apparent KD of K4 kissing-loop reporter” value is reported as 221 nM. “GCAGUGAUGUUGCGGAUGUACAGUGGAGUGCGAGGACCGGUACGGCCGCCACUCGUACAGAACAAGCUAAUAUAUCGAUAGGUGA [X]” was tested, and the “apparent KD of K4 kissing-loop reporter” value was 157 nM. In the case of “UAAUGUGGCACAGGAUAUACUGAUUGGAGUGAUGUUCCAAACAUGGACGUGAGACUUUUACAAGAAGUAGAAGGGUGUUAGAUAU [Exclusion FMN B GF 20]”, the “apparent KD of K4 kissing-loop reporter” value is reported as 306 nM. For “AGGCACGAGCAAGGAUAUCGAGUAGAGUGAUGUUCUGCCUGGGUUGGCCCGAAAGGGCCUUCCCAGCGAGAAGGUGCUCGUGCCU [#2 Same State - FMN A Attempt #9 (HarryS)]”, the “apparent KD of K4 kissing-loop reporter” value was 863 nM. With “GGAUCCACCAGUGAUGUUGGAGAAAACUCCAAGGAUAUGACGAAAGUCAGAAGGUGGUAGACUGGUCAAAGUCCGGUCGGAUCCA [FmnA10 U66]” the “apparent KD of K4 kissing-loop reporter” value was 262 nM. With “UAUUUAAAUAAAAUAAAAUAAAUUGCUGAUACCAGAGCCAAUUGGCUCCCUUGGCAGCGGAUCGAGUGAUGUUCGUAAAAUUUAU [AK2 SS Theophylline A]” the “apparent KD of K4 kissing-loop reporter” value was 30.3 nM. With “GCCUGUGCGCGAAGGAGCGCCGUGACAGGUUACUGCCUUGGGCAGUGAUGUUGCUCAAUCUGGCAGGUAGGUCGCGUGCACAGGC” the “apparent KD of K4 kissing-loop reporter” value was 192 nM. For “AGCAUUUUCAGAAGGAGCGUGAAUUAUUCAUAAUUAUAUUAUACGAGUGAUGUUCGUAUUUCACAGGUAGGUCGCUGAUAUAGCA [JR_SSArginiB_Sub002]”, the “apparent KD of K4 kissing-loop reporter” value was 46.6 nM. In the case of “AGUUUAGAGUGACUCGAUAAGAGUCACAAACGAGGACCGGUACGGCCGCCACUCGAAAUAACGAGAGUGAUGUUCUCGCUGGGCA [FiskerMod 3 - Jieux - Same State Tryptophan A]”, the “apparent KD of K4 kissing-loop reporter” value is reported as 126 nM. For “UUGGAGUGAUGUUCCAUAUCUUGAGCCGAAGGAGCGGCAUUAUUGCCAGGUAGGUCGCGGCAGAAGGUACCAGUGAUGUUGGAAA [Same State Arginine A GF 4]”, the “apparent KD of K4 kissing-loop reporter” value was 125 nM. For “AAUGUACAAGUGAUGUUUGUACUUUCCGAAGGAGCGUCUAAUAAGACAGGUAGGUCGCGGAUUCUCUUAAUUAUCAGGUCAUUAA [JR_ExcArginiA_Sub017]”, the “apparent KD of K4 kissing-loop reporter” value was 81.6 nM. For “AGUGAUGUAUGGCGGUGUGUCGCUUAAAAUCAGGAUAUAUAAACAAAUAGAAGGGAUGGCGGAGUGAUGUUCCGCCGGCCGCCAU [FMN A Exl V2]”, the “apparent KD of K4 kissing-loop reporter” value was 128 nM. In the case of “UAAUUUAUGUCUUUAAUAUAAUUUUCAGAUACCAGUGAUUAUUAACACCCUUGGCAGCUGUGUAGAGUGAUGUUCUCAUGCUUAA [#07 K4 Theophylline A Exclusion]”, the “apparent KD of K4 kissing-loop reporter” value is reported as 229 nM. In the case of “GGAUAGGAUAGAGGAUAUGGCUUACGCAGAAAUAACUUAUUGUGUAAAUCCAUAGGGAGUGAUGUUCCAGAAGGCUGUCCUAUCG [MatMod 17 - Jieux - Exclusion - FMN B]”, the “apparent KD of K4 kissing-loop reporter” value is reported as 201 nM. In the case of “UUUUAAUGCAGUGAUGUUGCUAAUAAAACAGAGGAUAUGCAUGGAAGCAGAAGGCUGAUAUAUUAUACUUUAAUAUAUUAUAUUU [JR_SSFMNA_Sub011]”, the “apparent KD of K4 kissing-loop reporter” value is reported as 86.6 nM. For “CGUUUAUAGGAGGAUACCAGUACGGAUAAAGUACGUUAAUAGUAGAGUGAUGUUCUAAAGUACCCUUGGCAGCUUAGAGUGAGUG [ExTheophylB.N]”, the “apparent KD of K4 kissing-loop reporter” value was 73.6 nM. For “GAUGAAUGCGGAAGGAGCGAGUUUUUGGGAGUGAUGUUCCCUGCAUAUGCACGUGGGAAAGCUCAGGUAGGUCGCCGCGCUUGUU [Same State Arginine B GF 28]”, the “apparent KD of K4 kissing-loop reporter” value was 204 nM. “UUGGCUGGACGGGAUACCAGCCAAAUCGUGUGCUUAGGAUGUCUAAGAGCCAGUGAUGUUGGCCCUUGGCAGCCCUCCUAGCUUG [Ordigear]” was tested, and the “apparent KD of K4 kissing-loop reporter” value was 136 nM.

These sequences were tested on MS2 coat protein (assay: apparent KD of MS2 coat protein; higher = weaker reporter binding). Settings: Eterna round: R107; input ligand: arginine 13.2 mM.
Protocol: as §1, with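 “SNAP-549-labelled MS2 coat protein” for “a labelled K4 kissing-loop RNA reporter”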
“AGUAGUUGACAAAAGUCAGCUACAACUGAAGGAGCGGGUGGGUGCCCAGGUAGGUCGCAGGAACAUGAGGAUCACCCAUGUAUAA [ArgAS 3 #BothOrNeither #OpenEnded]” was tested, and the “apparent KD of MS2 coat protein” value was 35.9 nM.

Same assay, conditions: Eterna round: R107; input ligand: none
For “AGUAGUUGACAAAAGUCAGCUACAACUGAAGGAGCGGGUGGGUGCCCAGGUAGGUCGCAGGAACAUGAGGAUCACCCAUGUAUAA [ArgAS 3 #BothOrNeither #OpenEnded]”, the “apparent KD of MS2 coat protein” value was 22.7 nM.

Same assay, conditions: Eterna round: R107; input ligand: theophylline 20 uM
With “AGUAGUUGACAAAAGUCAGCUACAACUGAAGGAGCGGGUGGGUGCCCAGGUAGGUCGCAGGAACAUGAGGAUCACCCAUGUAUAA [ArgAS 3 #BothOrNeither #OpenEnded]” the “apparent KD of MS2 coat protein” value was 40.3 nM.

Same assay, conditions: Eterna round: R107; input ligand: theophylline 2 mM
For “AGUAGUUGACAAAAGUCAGCUACAACUGAAGGAGCGGGUGGGUGCCCAGGUAGGUCGCAGGAACAUGAGGAUCACCCAUGUAUAA [ArgAS 3 #BothOrNeither #OpenEnded]”, the “apparent KD of MS2 coat protein” value was 32.2 nM.

Same assay, conditions: Eterna round: R107; input ligand: tryptophan 2.4 mM
In the case of “AGUAGUUGACAAAAGUCAGCUACAACUGAAGGAGCGGGUGGGUGCCCAGGUAGGUCGCAGGAACAUGAGGAUCACCCAUGUAUAA [ArgAS 3 #BothOrNeither #OpenEnded]”, the “apparent KD of MS2 coat protein” value is reported as 18.5 nM.

— the supplement of paper PMC9170038
